Source: patent EP0699075B1
Values belong to the substance of their own block, whether it stands above or below them.

How the values were obtained:
[1] = target: cell-surface tissue factor on rat vascular smooth muscle cells (rat) (UniProt P42533); experiment: cell-based or functional assay
[2] = target: purified recombinant soluble tissue factor (UniProt P13726); experiment: cell-based or functional assay
Chain of UniProt P13726 (P13726 33-251 limits assumed): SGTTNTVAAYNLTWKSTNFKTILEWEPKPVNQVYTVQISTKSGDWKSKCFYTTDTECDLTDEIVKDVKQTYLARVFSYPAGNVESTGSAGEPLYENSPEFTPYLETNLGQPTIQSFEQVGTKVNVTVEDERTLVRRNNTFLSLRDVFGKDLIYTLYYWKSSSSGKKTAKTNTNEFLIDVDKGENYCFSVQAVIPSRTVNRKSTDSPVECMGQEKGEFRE

Chain of UniProt P42533 (P42533 29-295): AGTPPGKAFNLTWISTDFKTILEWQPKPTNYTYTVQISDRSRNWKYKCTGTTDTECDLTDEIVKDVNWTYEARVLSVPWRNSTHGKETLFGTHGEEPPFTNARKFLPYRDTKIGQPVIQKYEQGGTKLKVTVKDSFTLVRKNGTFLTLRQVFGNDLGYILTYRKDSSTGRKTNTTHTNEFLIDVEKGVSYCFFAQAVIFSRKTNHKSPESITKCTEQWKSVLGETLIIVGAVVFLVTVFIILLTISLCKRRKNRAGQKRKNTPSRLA

OD405, Factor Xa chromogenic activity (S-2222) on rat smooth muscle cells, DEGR-Factor VIIa 0.00 nM coincubated with 100 nM Factor VIIa [1]: 0.208 OD405
OD405, Factor Xa chromogenic activity (S-2222) on rat smooth muscle cells, DEGR-Factor VIIa 0.39 nM coincubated with 100 nM Factor VIIa [1]: 0.176 OD405
OD405, Factor Xa chromogenic activity (S-2222) on rat smooth muscle cells, DEGR-Factor VIIa 1.56 nM coincubated with 100 nM Factor VIIa [1]: 0.116 OD405
OD405, Factor Xa chromogenic activity (S-2222) on rat smooth muscle cells, DEGR-Factor VIIa 6.25 nM coincubated with 100 nM Factor VIIa [1]: 0.073 OD405
OD405, Factor Xa chromogenic activity (S-2222) on rat smooth muscle cells, DEGR-Factor VIIa 25.00 nM coincubated with 100 nM Factor VIIa [1]: 0.026 OD405
OD405, Factor Xa chromogenic activity (S-2222) on rat smooth muscle cells, DEGR-Factor VIIa 100.00 nM coincubated with 100 nM Factor VIIa [1]: 0.014 OD405
OD405, Factor Xa chromogenic activity (S-2222) on serum-stimulated rat smooth muscle cells, 10 nM Factor VIIa + 100 nM DEGR-Factor VIIa [1]: 0.073 OD405
inhibition of chromogenic activity at a 1:1 molar ratio of DEGR-Factor VIIa:Factor VIIa on rat smooth muscle cells [1]: 95%
OD405, Factor Xa chromogenic activity (S-2222), DEGR-Factor VIIa 0 nM with 100 nM Factor VIIa and soluble tissue factor (cell read as 0 | 0.810) [2]: 0.81 OD405
OD405, Factor Xa chromogenic activity (S-2222), DEGR-Factor VIIa 5 nM with 100 nM Factor VIIa and soluble tissue factor (cell read as 5 | 0.750) [2]: 0.75 OD405
OD405, Factor Xa chromogenic activity (S-2222), DEGR-Factor VIIa 10 nM with 100 nM Factor VIIa and soluble tissue factor (cell read as 10 | 0.609) [2]: 0.609 OD405
OD405, Factor Xa chromogenic activity (S-2222), DEGR-Factor VIIa 20 nM with 100 nM Factor VIIa and soluble tissue factor (cell read as 20 | 0.296) [2]: 0.296 OD405
OD405, Factor Xa chromogenic activity (S-2222), DEGR-Factor VIIa 40 nM with 100 nM Factor VIIa and soluble tissue factor (cell read as 40 | 0.167) [2]: 0.167 OD405
OD405, Factor Xa chromogenic activity (S-2222), DEGR-Factor VIIa 80 nM with 100 nM Factor VIIa and soluble tissue factor (cell read as 80 | 0.083) [2]: 0.083 OD405
OD405, Factor Xa chromogenic activity (S-2222), DEGR-Factor VIIa 160 nM with 100 nM Factor VIIa and soluble tissue factor (cell read as 160 | 0.055) [2]: 0.055 OD405
Substance: DEGR-Factor VIIa (enzyme)

OD405, Factor Xa chromogenic activity (S-2222) on PDGF-BB-stimulated rat smooth muscle cells, 10 nM Factor VIIa, cells washed before Factor X was added [1]: 0.36 OD405
OD405, Factor Xa chromogenic activity (S-2222) on rat smooth muscle cells stimulated with 10% FCS, 10 nM Factor VIIa, cells washed before Factor X was added [1]: 0.342 OD405
OD405, Factor Xa chromogenic activity (S-2222) on rat smooth muscle cells, Factor VIIa 0.10 nM [1]: 0.005 OD405
OD405, Factor Xa chromogenic activity (S-2222) on rat smooth muscle cells, Factor VIIa 0.39 nM [1]: 0.025 OD405
OD405, Factor Xa chromogenic activity (S-2222) on rat smooth muscle cells, Factor VIIa 1.56 nM [1]: 0.058 OD405
OD405, Factor Xa chromogenic activity (S-2222) on rat smooth muscle cells, Factor VIIa 6.25 nM [1]: 0.111 OD405
OD405, Factor Xa chromogenic activity (S-2222) on rat smooth muscle cells, Factor VIIa 25.00 nM [1]: 0.154 OD405
OD405, Factor Xa chromogenic activity (S-2222) on rat smooth muscle cells, Factor VIIa 100.00 nM [1]: 0.208 OD405
OD405, Factor Xa chromogenic activity (S-2222) on serum-stimulated rat smooth muscle cells, 10 nM Factor VIIa alone [1]: 0.342 OD405
OD405, Factor Xa chromogenic activity (S-2222) on unstimulated rat smooth muscle cells (Intrinsic), 10 nM Factor VIIa, cells washed before Factor X was added [1]: 0.247 OD405
Substance: recombinant human Factor VIIa (enzyme)
